Experiments:
[1] = target: the molecule itself; experiment: FRET or BRET
[2] = target: the molecule itself; experiment: SDS-agarose gel electrophoresis of SDS-resistant oligomer, immunoblot; PLY^PPL incubated with mouse or human serum diluted 1:2 to 1:40 in HEPES buffered saline, 37°C, 20 minutes; SDS-AGE (1.5%), blot probed with rabbit anti-PLY serum

Row | Protein | binding result [1] | binding result [2]
1 | pre-pore locked pneumolysin with Cys-117, labelled with Alexa Fluor 488 or 568 (PLY^PPL D117C) (natural protein, Streptococcus pneumoniae, UniProt P0C2J9 1-471, looked up, Alexa Fluor 488 (donor) or Alexa Fluor 568 (acceptor) on the sulfhydryl of Cys-117; disulfide between cysteine-substituted Gly-25 and Glu-159, Donor-labelled protein was mixed with acceptor-labelled or unlabelled (U) protein in the FRET assay; also called D labeled PLY^PPL; A labeled PLY^PPL; source: E. coli Tuner cells, purified) MANKAVNDFILAMNYDKKKLLTHQCESIENRFIKEGNQLPDEFVVIERKKRSLSTNTSDISVTATNDSRLYPGALLVVDETLLENNPTLLAVDRAPMTYSIDLPGLASSDSFLQVECPSNSSVRGAVNDLLAKWHQDYGQVNNVPARMQYEKITAHSMCQLKVKFGSDFEKTGNSLDIDFNSVHSGEKQIQIVNFKQIYYTVSVDAVKNPGDVFQDTVTVEDLKQRGISAERPLVYISSVAYGRQVYLKLETTSKSDEVEAAFEALIKGVKVAPQTEWKQILDNTEVKAVILGGDPSSGARVVTGKVDMVEDLIQEGSRFTADHPGLPISYTTSFLRDNVVATFQNSTDYVETKVTAYRNGDLLLDHSGAYVAQYYITWNELSYDHQGKEVLTPKAWDRNGQDLTAHFTTSIPLKGNVRNLSVKIREATGLAWEWWRTVYEKTDLPLVRKRTISIWGTTLYPQVEDKVEND | binds | 
2 | pre-pore locked pneumolysin (PLY^PPL) (natural protein, disulfide between cysteine-substituted Gly-25 and Glu-159, pneumolysin (PLY) of Streptococcus pneumoniae, codon-optimised gene in pET-15b (NdeI/BamHI); cysteine-less background (Cys-428 to Ala) with a disulfide between Cys-25 and Cys-159; also called prepore locked version of PLY; source: E. coli Tuner cells, purified) MANKAVNDFILAMNYDKKKLLTHQCESIENRFIKEGNQLPDEFVVIERKKRSLSTNTSDISVTATNDSRLYPGALLVVDETLLENNPTLLAVDRAPMTYSIDLPGLASSDSFLQVEDPSNSSVRGAVNDLLAKWHQDYGQVNNVPARMQYEKITAHSMCQLKVKFGSDFEKTGNSLDIDFNSVHSGEKQIQIVNFKQIYYTVSVDAVKNPGDVFQDTVTVEDLKQRGISAERPLVYISSVAYGRQVYLKLETTSKSDEVEAAFEALIKGVKVAPQTEWKQILDNTEVKAVILGGDPSSGARVVTGKVDMVEDLIQEGSRFTADHPGLPISYTTSFLRDNVVATFQNSTDYVETKVTAYRNGDLLLDHSGAYVAQYYITWNELSYDHQGKEVLTPKAWDRNGQDLTAHFTTSIPLKGNVRNLSVKIREATGLAWEWWRTVYEKTDLPLVRKRTISIWGTTLYPQVEDKVEND |  | binds
